Results on 84 variants are retold here after the RNAGym collection of RNA variant scans (doi:10.1073/pnas.2313332121).

Variants at the floor of the assay were thinned out.

Sequences and labels used below:
B1: TPR 5TU (parent)
chain: GGAUCUUCUCGAUCUAACAAAAAAGACAAAUCUGCCACAAAGCUUGAGAGCAUCUUCGGAUGCAGAGGCGGCAGCCUUCGGUGGCGCGAUAGCGCCAACGUUCUCAACUAUGACACGCAAAACGCGUGCUCCGUUGAAUGGAGUUUAUCAUG

The data set covers variants of B1. Put plainly: polymerase ribozyme fitness, log enrichment relative to wild type (log ratio); higher = more active; in vitro selection for triplet polymerase activity. The essentials:
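For each subunit of a heterodimeric triplet polymerase ribozyme, a mutant library was built by PCR and transcribed, then taken through a single in vitro selection round in triplicate. Selection involved annealing to a biotinylated primer, the partner subunit and triplets, incubation frozen at −7 °C, gel excision of extended constructs, capture on streptavidin beads and RT-PCR. Genotypes were retained after Illumina sequencing of inputs and outputs only with ≥10 input reads and ≥1 read in each output. Fitness is defined as the logarithm of a genotype's enrichment relative to wild-type enrichment, using inverse-variance-weighted averages across replicates, with the logarithm taken to base 2.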
Consider G59C A89G U139C U144C, for which the “polymerase ribozyme fitness (log ratio)” value is -3.75.
Take A23C U53C G58U G94C A115U C129U: the “polymerase ribozyme fitness (log ratio)” value is no more than -4.2.
Take A17C C96U A107C: the “polymerase ribozyme fitness (log ratio)” value was -3.77.
On to A47C C72U G92A, for which the “polymerase ribozyme fitness (log ratio)” value was -3.53.
Take G48C C118G A120G: the “polymerase ribozyme fitness (log ratio)” value was -3.82.
Take C51U C85A G143C: the “polymerase ribozyme fitness (log ratio)” value was -2.7.
Consider C14G U61A C85U C93A C108U A115U, for which the “polymerase ribozyme fitness (log ratio)” value is no more than -4.2.
As for A22C A37C G59U A89U C93G A119U, the “polymerase ribozyme fitness (log ratio)” value was no more than -4.2.
In the case of A47C U61A C85G C108A, the “polymerase ribozyme fitness (log ratio)” value was no more than -4.2.
Turning to U56A G84A A98U U101C, the “polymerase ribozyme fitness (log ratio)” value is -1.09.
On to C36A U56G C103G A142G G143C, for which the “polymerase ribozyme fitness (log ratio)” value is no more than -4.2.
C36G A52C C95U U148A A150U: the “polymerase ribozyme fitness (log ratio)” value was no more than -4.2.
Then A40C A52G, with 0.882.
For the variant A91C G100U, the “polymerase ribozyme fitness (log ratio)” value was no more than -4.2.
As to U56A C85U C114A G141C, the “polymerase ribozyme fitness (log ratio)” value was no more than -4.2.
Take C79U U102C: the “polymerase ribozyme fitness (log ratio)” value is no more than -4.2.
In the case of U45G G92C, the “polymerase ribozyme fitness (log ratio)” value was -2.2.
On to C69A U90C, for which the “polymerase ribozyme fitness (log ratio)” value was no more than -4.2.
With A12U G58C C76U U102G A138C, the “polymerase ribozyme fitness (log ratio)” value was no more than -4.2.
Regarding U13A A24U C96G, the “polymerase ribozyme fitness (log ratio)” value is -1.33.
For G46A C51A A98G C125U, the “polymerase ribozyme fitness (log ratio)” value is no more than -4.2.
In the case of G58C A142U U146A, the “polymerase ribozyme fitness (log ratio)” value was -1.03.
As to A23G C76G C87U A119G G140U, the “polymerase ribozyme fitness (log ratio)” value is no more than -4.2.
A22C G50C C57G G80U C87A A150U: the “polymerase ribozyme fitness (log ratio)” value is no more than -4.2.
U7A G11C A52G A89C A91G C95U U111C C131U: the “polymerase ribozyme fitness (log ratio)” value was no more than -4.2.
For U45G A49C C63G G84A G141C, the “polymerase ribozyme fitness (log ratio)” value is no more than -4.2.
A97G C103A: the “polymerase ribozyme fitness (log ratio)” value was -0.693.
Consider G50A G71C A91U A150U, for which the “polymerase ribozyme fitness (log ratio)” value was no more than -4.2.
For the variant A19U A23U U61A C99A U101G G136C A137C U145A, the “polymerase ribozyme fitness (log ratio)” value was no more than -4.2.
Regarding U15A A26G U77G C95A, the “polymerase ribozyme fitness (log ratio)” value is no more than -4.2.
Take A73U G141A: the “polymerase ribozyme fitness (log ratio)” value is -2.24.
Turning to A30C U44A C51U U77C C131G, the “polymerase ribozyme fitness (log ratio)” value was no more than -4.2.
Then A20U G88C, with -3.85; and A28U C36A A47G G59A C85A C129U U145A, with no more than -4.2; and A22G U82A G83A C105U, with 0.185.
In the case of U6A G81C G94U A113U C114U U151C, the “polymerase ribozyme fitness (log ratio)” value was no more than -4.2.
With A52C C96U, the “polymerase ribozyme fitness (log ratio)” value was -1.77.
Consider A30U G58C C95U U135C U144A, for which the “polymerase ribozyme fitness (log ratio)” value is no more than -4.2.
For G46A G71C U78A, the “polymerase ribozyme fitness (log ratio)” value is no more than -4.2.
On to C87U U102C A115C, for which the “polymerase ribozyme fitness (log ratio)” value is -2.7.
A64G C87A A115G C125A U148C C149G: the “polymerase ribozyme fitness (log ratio)” value is no more than -4.2.
Then A16C A47C U55A, with -2.23.
Consider G42C A52G U55A U56A G68A, for which the “polymerase ribozyme fitness (log ratio)” value is no more than -4.2.
For C75U G133U, the “polymerase ribozyme fitness (log ratio)” value was -3.54.
Turning to A119C U139C A142C, the “polymerase ribozyme fitness (log ratio)” value was -4.13.
As for G11U C57U G58A U104G C105U, the “polymerase ribozyme fitness (log ratio)” value was -3.72.
In the case of G50A C75U C76U U77A C96A A110G, the “polymerase ribozyme fitness (log ratio)” value is no more than -4.2.
On to C38U C85U U127A, for which the “polymerase ribozyme fitness (log ratio)” value was -3.87.
As for A37G U56G G58C G59A C93G C99G C108U, the “polymerase ribozyme fitness (log ratio)” value is no more than -4.2.
Take C27G U61A A66G C76A C85A G141A: the “polymerase ribozyme fitness (log ratio)” value is no more than -4.2.
As for U6G A12C C35G A60C C75G A110G, the “polymerase ribozyme fitness (log ratio)” value is no more than -4.2.
The figure for U55G U148C is -2.46.
As for U53C C95U C125U A147U U148A U151G, the “polymerase ribozyme fitness (log ratio)” value was no more than -4.2.
Then A40C C51U U55G G74C A89C G92A, with no more than -4.2; and A20C U55A, with -0.798.
On to C35U G65A G80U C95G G141C, for which the “polymerase ribozyme fitness (log ratio)” value is -3.95.
For the variant A16G C54A C116A G133C, the “polymerase ribozyme fitness (log ratio)” value is -2.21.
Turning to U53A C96U C114G, the “polymerase ribozyme fitness (log ratio)” value is -4.15.
Take C27G U61A C93U C95U A97U G133U: the “polymerase ribozyme fitness (log ratio)” value was no more than -4.2.
For the variant U56A C85A U101G G152C, the “polymerase ribozyme fitness (log ratio)” value was -4.1.
Regarding A40C U55A, the “polymerase ribozyme fitness (log ratio)” value was 0.494.
With U4G A23C A30U A52C U56A, the “polymerase ribozyme fitness (log ratio)” value was no more than -4.2.
On to G80C C87G C103G G143C, for which the “polymerase ribozyme fitness (log ratio)” value is no more than -4.2.
In the case of A3G G94A C114U, the “polymerase ribozyme fitness (log ratio)” value is -2.39.
The figure for A12G U44G A60G G65C C114G is no more than -4.2.
For A17G C63U G88C, the “polymerase ribozyme fitness (log ratio)” value was no more than -4.2.
The figure for C54U G59C A64C G94U A120G is no more than -4.2; for C87U it is -0.596.
As to A3C G34C C43U A91G, the “polymerase ribozyme fitness (log ratio)” value was no more than -4.2.
On to C38G G58C G92U C105G U146C, for which the “polymerase ribozyme fitness (log ratio)” value was -2.53.
Take C38U C57U C93A A142U: the “polymerase ribozyme fitness (log ratio)” value is -3.5.
Then C18U U78A G81U C87G U144A, with no more than -4.2.
Turning to A23C C118U U144A, the “polymerase ribozyme fitness (log ratio)” value was no more than -4.2.
On to G58A G62C U82G A106G G141C, for which the “polymerase ribozyme fitness (log ratio)” value was -4.01.
On to A12U U13G A52U C54A, for which the “polymerase ribozyme fitness (log ratio)” value was no more than -4.2.
For the variant U33C C93A C99G G128U, the “polymerase ribozyme fitness (log ratio)” value was no more than -4.2.
Turning to C5G C32U U53G A73U C85U, the “polymerase ribozyme fitness (log ratio)” value was no more than -4.2.
Consider G65C C93A A97U C108U U109C, for which the “polymerase ribozyme fitness (log ratio)” value was no more than -4.2.
Then A107C A147U, with -3.71; and G48U U55G, with -0.894; and U56A C96U U148A, with -3.44.
On to C27U G58A C63A G84U, for which the “polymerase ribozyme fitness (log ratio)” value was -2.45.
Then C8A C57A G74A C118U, with no more than -4.2.
For the variant C36U A39C U82C G84U A119C A120U G133C A142U, the “polymerase ribozyme fitness (log ratio)” value is no more than -4.2.
